Assay results as given in US6635431.

How the values were obtained:
[1] = molecular target: α subunit of rat LSR (product of cDNA LSR-Rn-2097) (rat) (UniProt Q9WU74); test: flotation of 35S-labelled in vitro translated LSR with 100 µg/ml LDL and 1 mM oleate, against no oleate
[2] = molecular target: β subunit of rat LSR (product of cDNA LSR-Rn-1893) (rat) (UniProt Q9WU74); test: as above
Chain of β subunit of rat LSR (product of cDNA LSR-Rn-1893) (rat) (Q9WU74 other isoform, or with tags, fused parts or gaps limits assumed): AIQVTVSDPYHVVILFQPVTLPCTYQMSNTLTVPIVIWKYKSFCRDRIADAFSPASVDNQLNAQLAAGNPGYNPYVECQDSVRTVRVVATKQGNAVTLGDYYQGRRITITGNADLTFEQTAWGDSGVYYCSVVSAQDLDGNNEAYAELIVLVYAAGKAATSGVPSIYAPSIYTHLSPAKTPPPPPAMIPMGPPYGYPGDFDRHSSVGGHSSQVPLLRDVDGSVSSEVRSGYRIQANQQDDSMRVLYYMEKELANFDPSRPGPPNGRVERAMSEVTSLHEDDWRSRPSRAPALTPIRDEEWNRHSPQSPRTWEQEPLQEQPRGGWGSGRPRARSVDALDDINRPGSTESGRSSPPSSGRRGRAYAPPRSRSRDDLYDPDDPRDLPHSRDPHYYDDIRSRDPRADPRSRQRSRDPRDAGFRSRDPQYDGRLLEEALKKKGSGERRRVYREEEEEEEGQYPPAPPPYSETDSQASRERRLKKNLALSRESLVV

Chain of α subunit of rat LSR (product of cDNA LSR-Rn-2097) (rat) (Q9WU74 36-593 limits assumed): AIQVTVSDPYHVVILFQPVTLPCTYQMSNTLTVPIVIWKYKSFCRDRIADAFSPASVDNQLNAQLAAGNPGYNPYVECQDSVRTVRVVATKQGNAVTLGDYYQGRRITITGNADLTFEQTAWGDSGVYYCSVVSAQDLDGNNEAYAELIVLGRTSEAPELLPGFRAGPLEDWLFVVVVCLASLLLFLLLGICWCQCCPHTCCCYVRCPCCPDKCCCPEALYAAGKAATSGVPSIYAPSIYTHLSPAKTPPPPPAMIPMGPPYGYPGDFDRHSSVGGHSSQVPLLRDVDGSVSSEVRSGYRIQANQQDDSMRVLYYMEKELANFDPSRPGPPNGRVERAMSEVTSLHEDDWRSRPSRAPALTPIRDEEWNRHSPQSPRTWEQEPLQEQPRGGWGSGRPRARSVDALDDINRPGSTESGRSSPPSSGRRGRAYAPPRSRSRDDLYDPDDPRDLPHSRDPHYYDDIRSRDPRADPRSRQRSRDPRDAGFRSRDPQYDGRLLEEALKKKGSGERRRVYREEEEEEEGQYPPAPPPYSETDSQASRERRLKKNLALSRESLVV

LDL (low-density lipoprotein, 1.025<d<1.055 g/ml) isolated from plasma of volunteers, P04114 28-4563
factor of increase of LDL binding by oleate [1]: 5 fold | factor of increase of LDL binding by oleate [2]: 2 fold
